Laboratory results from patent publication US5783384, “Selection of binding-molecules” (President and Fellows of Harvard College).

Target: T1, GCN4 basic region peptide with 3-residue linker (monomeric) (UniProt P03069 SEQ:1-24)
T1 chain: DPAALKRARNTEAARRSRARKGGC
Test: EMSA; disulfide-tethered complex, reduction gel shift with 2-ME or DTT, pH 7.5 or 8.5; outcome only in figure
Conditions: protein: synthetic; tags: synthetic peptide, disulfide-tethered to DNA through linker thiol
Experimental: To test if the reduction potential of the disulfide bond corresponds to the affinity of the peptide for the adjacent DNA sequence, wild-type and mutant double-stranded DNA-peptide complexes were incubated in the presence of reducing agents 2-mercaptoethanol (2-ME) or dithiothreitol (DTT). (FIG. 4) The free (lower bands) vs. coupled DNA molecules (upper bands) were resolved on 20% nondenaturing polyacrylamide gel after. The wild-type peptide-DNA complex (wt) was consistently more resistant to reduction than the complex having mutation in either peptide (L, P) or DNA sequence (M3). Peptide-DNA complexes differ with respect to the gel mobility as well. The mutant complexes (L, P, M3) have lower gel mobility than the wild-type complex (wt), although the corresponding free (uncomplexed) DNA molecules run at the same speed.
Annealing of the oligonucleotide-peptide complex with the complementary oligonucleotide was done as described above, in the binding buffer of the same composition and desired pH (7.5 or 8.5). 2-ME or DTT was added and reactions were incubated at defined temperature in a water bath. Glycerol-running dye mixture was added (final concentration of glycerol is 5%) and reactions were loaded on 20% nondenaturing gel and run at low voltage (up to 120 V) for 16–24 hours at room temperature. (See FIG. 4).

B1: WT GCN4 half-site 39-mer (dsDNA)
DNA 1: AAGGTTAAACGTGCAAGTCATCGGTATAGGTCGAGAAGT
DNA 2: ACTTCTCGACCTATACCGATGACTTGCACGTTTAACCTT
modifications: N6-thioalkyl-dA adjacent to the half-site (disulfide tether)
  binding result: binds
